According to paper PMC5590460:

Target: recombinant MUC5AC C terminus protein (human)
Assay: SDS-PAGE under non-reducing and reducing conditions with western blot; purified recombinant protein from cell lysates and cell supernatants run reduced and non-reduced on 6% Bis-Tris acrylamide or 3%-8% Tris-Acetate gels, transferred to PVDF, probed with a His antibody

recombinant MUC5AC C terminus protein (domain or fragment)
stoichiometry N: 2
